Measurements reported in publication PMC9482650, “Quantitative fragmentomics allow affinity mapping of interactomes” (Nature Communications, 2022).

What was measured:
Test in all cases: holdup assay
Parameters in all cases: key: below the threshold = too weak to quantify, mostly under pKd 3.1 to 4
Conditions in all cases: plain residues with an end cap or a label only (N-terminal biotin on a linker: ado-ado)
LNX1_2, Q8TBB1 = molecular target: LNX1_2, Q8TBB1
GRIP2_3, Q9C0E4 = molecular target: GRIP2_3, Q9C0E4
GRIP2_3, Q9C0E4, sequence (Q9C0E4 238-339): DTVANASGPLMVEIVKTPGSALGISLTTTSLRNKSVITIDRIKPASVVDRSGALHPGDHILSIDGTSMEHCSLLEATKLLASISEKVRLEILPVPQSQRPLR

Inadl_6, Q8NI35 = molecular target: Inadl_6, Q8NI35
Inadl_6, Q8NI35, sequence (Q8NI35 1058-1167): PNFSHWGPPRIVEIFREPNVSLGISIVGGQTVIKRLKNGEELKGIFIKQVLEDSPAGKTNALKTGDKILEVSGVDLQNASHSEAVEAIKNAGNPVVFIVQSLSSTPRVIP

Inadl_4, Q8NI35 = molecular target: Inadl_4, Q8NI35
Inadl_4, Q8NI35, sequence (Q8NI35 547-651): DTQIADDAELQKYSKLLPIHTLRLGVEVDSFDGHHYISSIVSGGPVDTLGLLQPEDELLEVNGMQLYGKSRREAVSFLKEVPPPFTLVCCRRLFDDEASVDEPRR

SNTA1, Q13424 = molecular target: T1, SNTA1, Q13424
T1 sequence (Q13424 82-180, limits assumed, looked up): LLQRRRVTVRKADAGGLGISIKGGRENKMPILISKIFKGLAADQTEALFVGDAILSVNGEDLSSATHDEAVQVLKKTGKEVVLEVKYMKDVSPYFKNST

DLG4_3, P78352 = molecular target: DLG4_3, P78352
DLG4_3, P78352, sequence (P78352 306-403): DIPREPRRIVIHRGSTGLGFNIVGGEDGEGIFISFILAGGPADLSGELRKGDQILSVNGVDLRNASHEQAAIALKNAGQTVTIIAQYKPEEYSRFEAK

Inadl_1, Q8NI35 = molecular target: Inadl_1, Q8NI35
Inadl_1, Q8NI35, sequence (Q8NI35 113-229): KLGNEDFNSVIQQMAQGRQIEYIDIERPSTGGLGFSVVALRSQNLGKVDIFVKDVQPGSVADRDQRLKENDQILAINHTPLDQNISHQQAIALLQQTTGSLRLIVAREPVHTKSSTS

PARD3_3, Q8TEW0 = molecular target: PARD3_3, Q8TEW0
PARD3_3, Q8TEW0, sequence (Q8TEW0 582-685): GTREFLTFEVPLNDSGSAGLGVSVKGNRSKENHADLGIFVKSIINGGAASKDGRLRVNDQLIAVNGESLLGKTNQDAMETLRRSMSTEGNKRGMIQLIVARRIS

LNX1_3, Q8TBB1 = molecular target: LNX1_3, Q8TBB1
LNX1_3, Q8TBB1, sequence (Q8TBB1 500-596): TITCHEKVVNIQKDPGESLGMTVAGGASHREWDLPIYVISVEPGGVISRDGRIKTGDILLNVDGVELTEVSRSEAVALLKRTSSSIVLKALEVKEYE

MAGI3_2, Q5TCQ9 = molecular target: MAGI3_2, Q5TCQ9
MAGI3_2, Q5TCQ9, sequence (Q5TCQ9 398-503): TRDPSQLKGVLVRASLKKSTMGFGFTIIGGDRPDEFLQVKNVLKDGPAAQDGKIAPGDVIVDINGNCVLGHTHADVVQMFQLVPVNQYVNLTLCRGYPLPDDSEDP

DLG1_1, Q12959 = molecular target: DLG1_1, Q12959
GOPC, Q9HD26 = molecular target: GOPC, Q9HD26
FRMPD2_2, Q68DX3 = molecular target: FRMPD2_2, Q68DX3
FRMPD2_2, Q68DX3, sequence (Q68DX3 944-1038): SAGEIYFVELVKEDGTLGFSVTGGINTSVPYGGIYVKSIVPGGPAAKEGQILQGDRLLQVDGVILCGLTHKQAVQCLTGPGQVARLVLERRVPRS

HTRA3, P83110 = molecular target: T2, HTRA3, P83110
T2 sequence (P83110 354-453, limits assumed, looked up): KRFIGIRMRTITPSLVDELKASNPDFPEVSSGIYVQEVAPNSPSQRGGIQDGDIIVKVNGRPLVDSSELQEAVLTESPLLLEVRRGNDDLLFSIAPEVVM

MAGI1_2, Q96QZ7 = molecular target: MAGI1_2, Q96QZ7
MAGI1_2, Q96QZ7, sequence (Q96QZ7 456-580): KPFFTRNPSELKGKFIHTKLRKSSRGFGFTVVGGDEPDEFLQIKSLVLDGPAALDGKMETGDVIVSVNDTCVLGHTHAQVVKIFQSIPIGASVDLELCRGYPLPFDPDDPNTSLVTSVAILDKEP

FRMPD2_1, Q68DX3 = molecular target: FRMPD2_1, Q68DX3
FRMPD2_1, Q68DX3, sequence (Q68DX3 770-861): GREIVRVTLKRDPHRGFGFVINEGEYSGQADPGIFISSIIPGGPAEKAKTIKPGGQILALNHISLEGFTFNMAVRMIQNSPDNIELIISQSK

LIN7B, Q9HAP6 = molecular target: T3, LIN7B, Q9HAP6
T3 sequence (Q9HAP6 88-185, limits assumed, looked up): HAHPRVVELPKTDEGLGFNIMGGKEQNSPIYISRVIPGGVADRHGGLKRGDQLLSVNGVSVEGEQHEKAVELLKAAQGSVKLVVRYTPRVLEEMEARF

LIN7C, Q9NUP9 = molecular target: T4, LIN7C, Q9NUP9
T4 sequence (Q9NUP9 88-185, limits assumed, looked up): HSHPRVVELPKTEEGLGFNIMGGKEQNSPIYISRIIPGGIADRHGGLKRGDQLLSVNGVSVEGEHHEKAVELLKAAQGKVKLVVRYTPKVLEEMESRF

RHPN1, Q8TCX5 = molecular target: T5, RHPN1, Q8TCX5
T5 sequence (Q8TCX5 508-602, limits assumed, looked up): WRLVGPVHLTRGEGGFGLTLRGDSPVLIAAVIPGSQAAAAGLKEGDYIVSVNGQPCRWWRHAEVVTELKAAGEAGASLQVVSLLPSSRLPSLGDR

APBA1_2, Q02410 = molecular target: T6, APBA1_2, Q02410
T6 sequence (Q02410 742-832, limits assumed, looked up): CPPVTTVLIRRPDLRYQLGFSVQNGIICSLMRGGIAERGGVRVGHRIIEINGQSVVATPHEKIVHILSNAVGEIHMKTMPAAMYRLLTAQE

ARHGEF12, Q9NZN5-2 = molecular target: ARHGEF12, Q9NZN5-2
ARHGEF12, Q9NZN5-2, sequence (Q9NZN5 other isoform, or with tags, fused parts or gaps): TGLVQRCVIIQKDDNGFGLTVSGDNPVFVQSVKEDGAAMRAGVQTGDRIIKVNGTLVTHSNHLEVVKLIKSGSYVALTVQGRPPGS

NHERF3_3, Q5T2W1 = molecular target: T7, NHERF3_3, Q5T2W1
T7 sequence (Q5T2W1 238-333, limits assumed, looked up): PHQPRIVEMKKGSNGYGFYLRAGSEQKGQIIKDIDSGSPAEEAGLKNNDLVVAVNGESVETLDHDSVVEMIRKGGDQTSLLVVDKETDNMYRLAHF

Inadl_10, Q8NI35 = molecular target: Inadl_10, Q8NI35
Inadl_10, Q8NI35, sequence (Q8NI35 1673-1763): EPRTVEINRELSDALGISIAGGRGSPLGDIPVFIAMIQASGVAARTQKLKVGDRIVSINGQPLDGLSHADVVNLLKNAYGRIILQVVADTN

FRMPD3, Q5JV73 = molecular target: FRMPD3, Q5JV73
FRMPD3, Q5JV73, sequence (Q5JV73 12-100): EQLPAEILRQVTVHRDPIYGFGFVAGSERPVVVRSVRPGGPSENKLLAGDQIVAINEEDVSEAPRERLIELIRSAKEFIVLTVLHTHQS

Inadl_8, Q8NI35 = molecular target: Inadl_8, Q8NI35
Inadl_8, Q8NI35, sequence (Q8NI35 1425-1530): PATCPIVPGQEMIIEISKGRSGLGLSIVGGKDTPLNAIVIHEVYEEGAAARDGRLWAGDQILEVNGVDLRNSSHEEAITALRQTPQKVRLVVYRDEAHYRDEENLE

GORASP1, Q9BQQ3 = molecular target: GORASP1, Q9BQQ3
GORASP1, Q9BQQ3, sequence (Q9BQQ3 1-208): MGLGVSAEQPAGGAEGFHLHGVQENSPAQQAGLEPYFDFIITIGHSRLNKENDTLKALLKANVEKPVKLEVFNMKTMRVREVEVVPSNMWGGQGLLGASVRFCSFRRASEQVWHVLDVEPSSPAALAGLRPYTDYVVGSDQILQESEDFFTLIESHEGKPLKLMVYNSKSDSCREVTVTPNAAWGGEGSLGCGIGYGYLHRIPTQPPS

DLG2_2, Q15700 = molecular target: DLG2_2, Q15700
DLG2_2, Q15700, sequence (Q15700 189-283): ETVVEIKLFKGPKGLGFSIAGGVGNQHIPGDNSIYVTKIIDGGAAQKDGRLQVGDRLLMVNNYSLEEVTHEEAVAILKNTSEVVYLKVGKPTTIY

NHERF4_4, Q86UT5 = molecular target: NHERF4_4, Q86UT5
NHERF4_4, Q86UT5, sequence (Q86UT5 464-550): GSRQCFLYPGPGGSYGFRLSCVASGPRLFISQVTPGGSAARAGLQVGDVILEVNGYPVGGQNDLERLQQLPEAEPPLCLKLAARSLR

DLG3_3, Q92796 = molecular target: T8, DLG3_3, Q92796
T8 sequence (Q92796 374-475, limits assumed, looked up): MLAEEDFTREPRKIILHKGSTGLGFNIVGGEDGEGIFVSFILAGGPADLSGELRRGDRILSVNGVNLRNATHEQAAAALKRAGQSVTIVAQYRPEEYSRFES

MAST2, Q6P0Q8 = molecular target: MAST2, Q6P0Q8
MAST2, Q6P0Q8, sequence (Q6P0Q8 1099-1202): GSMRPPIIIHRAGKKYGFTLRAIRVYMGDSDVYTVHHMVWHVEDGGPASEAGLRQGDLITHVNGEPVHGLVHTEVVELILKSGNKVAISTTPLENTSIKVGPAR

MAGI2_3, Q86UL8 = molecular target: MAGI2_3, Q86UL8
MAGI2_3, Q86UL8, sequence (Q86UL8 600-682): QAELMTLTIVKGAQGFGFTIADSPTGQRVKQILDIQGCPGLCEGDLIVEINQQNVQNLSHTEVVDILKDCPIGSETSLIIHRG

LNX1_2, Q8TBB1, sequence (Q8TBB1 371-470): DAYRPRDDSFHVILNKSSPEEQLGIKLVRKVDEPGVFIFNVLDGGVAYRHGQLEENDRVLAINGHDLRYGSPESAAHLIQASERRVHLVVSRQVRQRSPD

WAKEKQHTRL [SLC17A1, Q14916]
pKd (LNX1_2, Q8TBB1): below the threshold | pKd (GRIP2_3, Q9C0E4): below the threshold | pKd (Inadl_6, Q8NI35): below the threshold | pKd (Inadl_4, Q8NI35): below the threshold | pKd (SNTA1, Q13424): 3.77 | pKd (DLG4_3, P78352): below the threshold | pKd (Inadl_1, Q8NI35): below the threshold | pKd (PARD3_3, Q8TEW0): below the threshold | pKd (LNX1_3, Q8TBB1): below the threshold | pKd (MAGI3_2, Q5TCQ9): 4.47 | pKd (DLG1_1, Q12959): 3.64 | pKd (GOPC, Q9HD26): 4.91 | pKd (FRMPD2_2, Q68DX3): below the threshold | pKd (HTRA3, P83110): below the threshold | pKd (MAGI1_2, Q96QZ7): 4.7 | pKd (FRMPD2_1, Q68DX3): below the threshold | pKd (LIN7B, Q9HAP6): below the threshold | pKd (LIN7C, Q9NUP9): below the threshold | pKd (RHPN1, Q8TCX5): 3.97 | pKd (APBA1_2, Q02410): below the threshold | pKd (ARHGEF12, Q9NZN5-2): 4.84 | pKd (NHERF3_3, Q5T2W1): 4.28 | pKd (Inadl_10, Q8NI35): below the threshold | pKd (FRMPD3, Q5JV73): below the threshold | pKd (Inadl_8, Q8NI35): below the threshold | pKd (GORASP1, Q9BQQ3): below the threshold | pKd (DLG2_2, Q15700): 3.82 | pKd (NHERF4_4, Q86UT5): below the threshold | pKd (DLG3_3, Q92796): below the threshold | pKd (MAST2, Q6P0Q8): 5.45 | pKd (MAGI2_3, Q86UL8): below the threshold

GVHSNDHSVV [LPAR1, Q92633]
pKd (LNX1_2, Q8TBB1): below the threshold | pKd (GRIP2_3, Q9C0E4): below the threshold | pKd (Inadl_6, Q8NI35): below the threshold | pKd (Inadl_4, Q8NI35): below the threshold | pKd (SNTA1, Q13424): 3.68 | pKd (DLG4_3, P78352): below the threshold | pKd (Inadl_1, Q8NI35): below the threshold | pKd (PARD3_3, Q8TEW0): below the threshold | pKd (LNX1_3, Q8TBB1): below the threshold | pKd (MAGI3_2, Q5TCQ9): below the threshold | pKd (DLG1_1, Q12959): 3.74 | pKd (GOPC, Q9HD26): 3.59 | pKd (FRMPD2_2, Q68DX3): below the threshold | pKd (HTRA3, P83110): below the threshold | pKd (MAGI1_2, Q96QZ7): below the threshold | pKd (FRMPD2_1, Q68DX3): below the threshold | pKd (LIN7B, Q9HAP6): 3.64 | pKd (LIN7C, Q9NUP9): below the threshold | pKd (RHPN1, Q8TCX5): 3.78 | pKd (APBA1_2, Q02410): 3.63 | pKd (ARHGEF12, Q9NZN5-2): 3.54 | pKd (NHERF3_3, Q5T2W1): below the threshold | pKd (Inadl_10, Q8NI35): below the threshold | pKd (FRMPD3, Q5JV73): below the threshold | pKd (Inadl_8, Q8NI35): 3.62 | pKd (GORASP1, Q9BQQ3): 3.48 | pKd (DLG2_2, Q15700): 3.74 | pKd (NHERF4_4, Q86UT5): below the threshold | pKd (DLG3_3, Q92796): below the threshold | pKd (MAST2, Q6P0Q8): 4.12 | pKd (MAGI2_3, Q86UL8): below the threshold

SAGADSETHC [SLCO1B1, Q9Y6L6]
pKd (LNX1_2, Q8TBB1): below the threshold | pKd (GRIP2_3, Q9C0E4): below the threshold | pKd (Inadl_6, Q8NI35): below the threshold | pKd (Inadl_4, Q8NI35): below the threshold | pKd (SNTA1, Q13424): below the threshold | pKd (DLG4_3, P78352): below the threshold | pKd (Inadl_1, Q8NI35): below the threshold | pKd (PARD3_3, Q8TEW0): below the threshold | pKd (LNX1_3, Q8TBB1): below the threshold | pKd (MAGI3_2, Q5TCQ9): below the threshold | pKd (DLG1_1, Q12959): below the threshold | pKd (GOPC, Q9HD26): below the threshold | pKd (FRMPD2_2, Q68DX3): below the threshold | pKd (HTRA3, P83110): below the threshold | pKd (MAGI1_2, Q96QZ7): below the threshold | pKd (FRMPD2_1, Q68DX3): below the threshold | pKd (LIN7B, Q9HAP6): 3.69 | pKd (LIN7C, Q9NUP9): 3.93 | pKd (RHPN1, Q8TCX5): 3.49 | pKd (APBA1_2, Q02410): below the threshold | pKd (ARHGEF12, Q9NZN5-2): below the threshold | pKd (NHERF3_3, Q5T2W1): below the threshold | pKd (Inadl_10, Q8NI35): below the threshold | pKd (FRMPD3, Q5JV73): below the threshold | pKd (Inadl_8, Q8NI35): below the threshold | pKd (GORASP1, Q9BQQ3): below the threshold | pKd (DLG2_2, Q15700): below the threshold | pKd (NHERF4_4, Q86UT5): below the threshold | pKd (DLG3_3, Q92796): below the threshold | pKd (MAST2, Q6P0Q8): 4.62 | pKd (MAGI2_3, Q86UL8): below the threshold
